Results published in patent publication US20200199204A1.

Assays:
Assay in all cases: cell-based or functional assay
[1] = target: HIV-1 Env of BG505.w6m (HIV-1)
[2] = target: HIV-1 Env of ZM109.4 (HIV-1)
[3] = target: HIV-1 Env of Q769.d22 (HIV-1)
[4] = target: HIV-1 Env of ZM135.10a (HIV-1)
[5] = target: HIV-1 Env of TH976.17 (HIV-1)
[6] = target: HIV-1 Env of Q842.d12 (HIV-1)
[7] = target: HIV-1 Env of MB539.2B7 (HIV-1)
[8] = target: HIV-1 Env of ZM197.7 (HIV-1)
[9] = target: HIV-1 Env of MB201 (HIV-1)
[10] = target: HIV-1 Env of Q461.e2 (HIV-1)
[11] = target: HIV-1 Env of C1080.c3 (HIV-1)
[12] = target: HIV-1 Env of RHPA.7 (HIV-1)
[13] = target: HIV-1 Env of Q259.d2.17 (HIV-1)
[14] = target: HIV-1 Env of Q168.a2 (HIV-1)
[15] = target: HIV-1 Env of RW020.2 (HIV-1)
[16] = target: HIV-1 Env of THRO.18 (HIV-1)
[17] = target: HIV-1 Env of 0260.v5.c36 (HIV-1)
[18] = target: HIV-1 Env of SC422.8 (HIV-1)
[19] = target: HIV-1 Env of REJO.67 (HIV-1)
[20] = target: HIV-1 Env of CAAN.A2 (HIV-1)
[21] = target: HIV-1 Env of CAP256.SU (HIV-1)
[22] = target: HIV-1 Env of ZM214.15 (HIV-1)
[23] = target: HIV-1 Env of ZM53.12 (HIV-1)
[24] = target: HIV-1 Env of 3016.V5.c36 (HIV-1)
[25] = target: HIV-1 Env of UG037.8 (HIV-1)
[26] = target: HIV-1 Env of ZM249.1 (HIV-1)
[27] = target: HIV-1 Env of KER2008.12 (HIV-1)
[28] = target: HIV-1 Env of 6405.v4.c34 (HIV-1)
[29] = target: HIV-1 Env of 96ZM651.02 (HIV-1)
[30] = target: HIV-1 Env of TRO.11 (HIV-1)
[31] = target: HIV-1 Env of WITO.33 (HIV-1)
[32] = target: HIV-1 Env of CNE3 (HIV-1)
[33] = target: HIV-1 Env of KER2018.11 (HIV-1)
[34] = target: HIV-1 Env of 6535.3 (HIV-1)
[35] = target: HIV-1 Env of DU172.17 (HIV-1)
[36] = target: HIV-1 Env of DU422.01 (HIV-1)
[37] = target: HIV-1 Env of DU156.12 (HIV-1)
[38] = target: HIV-1 Env of QH0692.42 (HIV-1)
[39] = target: HIV-1 Env of CM244.ec1 (HIV-1)
[40] = target: HIV-1 Env of CAP256.PI (HIV-1)
[41] = target: HIV-1 Env of AC10.29 (HIV-1)
[42] = target: HIV-1 Env of PVO.04 (HIV-1)
[43] = target: HIV-1 Env of CAP244.D3 (HIV-1)
[44] = target: HIV-1 Env of Q23.17 (HIV-1)
[45] = target: HIV-1 Env of ZM233.6 (HIV-1)
[46] = target: HIV-1 Env of TRJO.58 (HIV-1)
[47] = target: HIV-1 Env of CAP45.G3 (HIV-1)
[48] = target: HIV-1 Env of CAP210.E8 (HIV-1)

CAP256-VRC26.32 (antibody)
IC50 (neutralization, TZM-bl) [1]: > 50 µg/mL
IC50 (neutralization, TZM-bl) [2]: > 50 µg/mL
IC50 (neutralization, TZM-bl) [3]: > 50 µg/mL
IC50 (neutralization, TZM-bl) [4]: > 50 µg/mL
IC50 (neutralization, TZM-bl) [5]: > 50 µg/mL
IC50 (neutralization, TZM-bl) [6]: > 50 µg/mL
IC50 (neutralization, TZM-bl) [7]: > 50 µg/mL
IC50 (neutralization, TZM-bl) [8]: 0.097 µg/mL
IC50 (neutralization, TZM-bl) [9]: > 50 µg/mL
IC50 (neutralization, TZM-bl) [10]: > 50 µg/mL
IC50 (neutralization, TZM-bl) [11]: > 50 µg/mL
IC50 (neutralization, TZM-bl) [12]: > 50 µg/mL
IC50 (neutralization, TZM-bl) [13]: > 50 µg/mL
IC50 (neutralization, TZM-bl) [14]: > 50 µg/mL
IC50 (neutralization, TZM-bl) [15]: > 50 µg/mL
IC50 (neutralization, TZM-bl) [16]: > 50 µg/mL
IC50 (neutralization, TZM-bl) [17]: > 50 µg/mL
IC50 (neutralization, TZM-bl) [18]: > 50 µg/mL
IC50 (neutralization, TZM-bl) [19]: > 50 µg/mL
IC50 (neutralization, TZM-bl) [20]: > 50 µg/mL
IC50 (neutralization, TZM-bl) [21]: 0.004 µg/mL
IC50 (neutralization, TZM-bl) [22]: > 50 µg/mL
IC50 (neutralization, TZM-bl) [23]: 0.011 µg/mL
IC50 (neutralization, TZM-bl) [24]: 0.284 µg/mL
IC50 (neutralization, TZM-bl) [25]: > 50 µg/mL
IC50 (neutralization, TZM-bl) [26]: 16.8 µg/mL
IC50 (neutralization, TZM-bl) [27]: > 50 µg/mL
IC50 (neutralization, TZM-bl) [28]: > 50 µg/mL
IC50 (neutralization, TZM-bl) [29]: > 50 µg/mL
IC50 (neutralization, TZM-bl) [30]: > 50 µg/mL
IC50 (neutralization, TZM-bl) [31]: > 50 µg/mL
IC50 (neutralization, TZM-bl) [32]: > 50 µg/mL
IC50 (neutralization, TZM-bl) [33]: 0.032 µg/mL
IC50 (neutralization, TZM-bl) [34]: > 50 µg/mL
IC50 (neutralization, TZM-bl) [35]: > 50 µg/mL
IC50 (neutralization, TZM-bl) [36]: > 50 µg/mL
IC50 (neutralization, TZM-bl) [37]: > 50 µg/mL
IC50 (neutralization, TZM-bl) [38]: > 50 µg/mL
IC50 (neutralization, TZM-bl) [39]: 0.561 µg/mL
IC50 (neutralization, TZM-bl) [40]: > 50 µg/mL
IC50 (neutralization, TZM-bl) [41]: > 50 µg/mL
IC50 (neutralization, TZM-bl) [42]: 17.8 µg/mL
IC50 (neutralization, TZM-bl) [43]: > 50 µg/mL
IC50 (neutralization, TZM-bl) [44]: > 50 µg/mL
IC50 (neutralization, TZM-bl) [45]: 0.015 µg/mL
IC50 (neutralization, TZM-bl) [46]: > 50 µg/mL
IC50 (neutralization, TZM-bl) [47]: > 50 µg/mL
IC50 (neutralization, TZM-bl) [48]: 0.008 µg/mL

CAP256-VRC26.29 (antibody)
IC50 (neutralization, TZM-bl) [1]: 0.046 µg/mL
IC50 (neutralization, TZM-bl) [2]: > 50 µg/mL
IC50 (neutralization, TZM-bl) [3]: > 50 µg/mL
IC50 (neutralization, TZM-bl) [4]: > 50 µg/mL
IC50 (neutralization, TZM-bl) [5]: > 50 µg/mL
IC50 (neutralization, TZM-bl) [6]: 1.69 µg/mL
IC50 (neutralization, TZM-bl) [7]: 13.3 µg/mL
IC50 (neutralization, TZM-bl) [8]: 0.136 µg/mL
IC50 (neutralization, TZM-bl) [9]: > 50 µg/mL
IC50 (neutralization, TZM-bl) [10]: 2 µg/mL
IC50 (neutralization, TZM-bl) [11]: 0.009 µg/mL
IC50 (neutralization, TZM-bl) [12]: > 50 µg/mL
IC50 (neutralization, TZM-bl) [13]: 0.019 µg/mL
IC50 (neutralization, TZM-bl) [14]: 0.007 µg/mL
IC50 (neutralization, TZM-bl) [15]: > 50 µg/mL
IC50 (neutralization, TZM-bl) [16]: > 50 µg/mL
IC50 (neutralization, TZM-bl) [17]: > 50 µg/mL
IC50 (neutralization, TZM-bl) [18]: > 50 µg/mL
IC50 (neutralization, TZM-bl) [19]: > 50 µg/mL
IC50 (neutralization, TZM-bl) [20]: > 50 µg/mL
IC50 (neutralization, TZM-bl) [21]: < 0.0006 µg/mL
IC50 (neutralization, TZM-bl) [22]: 13.6 µg/mL
IC50 (neutralization, TZM-bl) [23]: 0.001 µg/mL
IC50 (neutralization, TZM-bl) [24]: 0.012 µg/mL
IC50 (neutralization, TZM-bl) [25]: > 50 µg/mL
IC50 (neutralization, TZM-bl) [26]: 0.093 µg/mL
IC50 (neutralization, TZM-bl) [27]: 0.684 µg/mL
IC50 (neutralization, TZM-bl) [28]: > 50 µg/mL
IC50 (neutralization, TZM-bl) [29]: > 50 µg/mL
IC50 (neutralization, TZM-bl) [30]: > 50 µg/mL
IC50 (neutralization, TZM-bl) [31]: > 50 µg/mL
IC50 (neutralization, TZM-bl) [32]: > 50 µg/mL
IC50 (neutralization, TZM-bl) [33]: < 0.0006 µg/mL
IC50 (neutralization, TZM-bl) [34]: > 50 µg/mL
IC50 (neutralization, TZM-bl) [35]: > 50 µg/mL
IC50 (neutralization, TZM-bl) [36]: 0.072 µg/mL
IC50 (neutralization, TZM-bl) [37]: 0.136 µg/mL
IC50 (neutralization, TZM-bl) [38]: > 50 µg/mL
IC50 (neutralization, TZM-bl) [39]: 1.13 µg/mL
IC50 (neutralization, TZM-bl) [40]: > 50 µg/mL
IC50 (neutralization, TZM-bl) [41]: 20.4 µg/mL
IC50 (neutralization, TZM-bl) [42]: 4 µg/mL
IC50 (neutralization, TZM-bl) [43]: > 50 µg/mL
IC50 (neutralization, TZM-bl) [44]: 0.023 µg/mL
IC50 (neutralization, TZM-bl) [45]: 0.003 µg/mL
IC50 (neutralization, TZM-bl) [46]: > 50 µg/mL
IC50 (neutralization, TZM-bl) [47]: 0.076 µg/mL
IC50 (neutralization, TZM-bl) [48]: < 0.0006 µg/mL

CAP256-VRC26.33 (antibody)
IC50 (neutralization, TZM-bl) [1]: > 50 µg/mL
IC50 (neutralization, TZM-bl) [2]: > 50 µg/mL
IC50 (neutralization, TZM-bl) [3]: > 50 µg/mL
IC50 (neutralization, TZM-bl) [4]: > 50 µg/mL
IC50 (neutralization, TZM-bl) [5]: > 50 µg/mL
IC50 (neutralization, TZM-bl) [6]: > 50 µg/mL
IC50 (neutralization, TZM-bl) [7]: > 50 µg/mL
IC50 (neutralization, TZM-bl) [8]: 1.73 µg/mL
IC50 (neutralization, TZM-bl) [9]: > 50 µg/mL
IC50 (neutralization, TZM-bl) [10]: > 50 µg/mL
IC50 (neutralization, TZM-bl) [11]: > 50 µg/mL
IC50 (neutralization, TZM-bl) [12]: > 50 µg/mL
IC50 (neutralization, TZM-bl) [13]: > 50 µg/mL
IC50 (neutralization, TZM-bl) [14]: > 50 µg/mL
IC50 (neutralization, TZM-bl) [15]: > 50 µg/mL
IC50 (neutralization, TZM-bl) [16]: > 50 µg/mL
IC50 (neutralization, TZM-bl) [17]: > 50 µg/mL
IC50 (neutralization, TZM-bl) [18]: > 50 µg/mL
IC50 (neutralization, TZM-bl) [19]: > 50 µg/mL
IC50 (neutralization, TZM-bl) [20]: > 50 µg/mL
IC50 (neutralization, TZM-bl) [21]: 0.007 µg/mL
IC50 (neutralization, TZM-bl) [22]: > 50 µg/mL
IC50 (neutralization, TZM-bl) [23]: 0.015 µg/mL
IC50 (neutralization, TZM-bl) [24]: 0.506 µg/mL
IC50 (neutralization, TZM-bl) [25]: > 50 µg/mL
IC50 (neutralization, TZM-bl) [26]: 22.5 µg/mL
IC50 (neutralization, TZM-bl) [27]: > 50 µg/mL
IC50 (neutralization, TZM-bl) [28]: > 50 µg/mL
IC50 (neutralization, TZM-bl) [29]: > 50 µg/mL
IC50 (neutralization, TZM-bl) [30]: > 50 µg/mL
IC50 (neutralization, TZM-bl) [31]: > 50 µg/mL
IC50 (neutralization, TZM-bl) [32]: > 50 µg/mL
IC50 (neutralization, TZM-bl) [33]: 0.037 µg/mL
IC50 (neutralization, TZM-bl) [34]: > 50 µg/mL
IC50 (neutralization, TZM-bl) [35]: > 50 µg/mL
IC50 (neutralization, TZM-bl) [36]: 29.5 µg/mL
IC50 (neutralization, TZM-bl) [37]: > 50 µg/mL
IC50 (neutralization, TZM-bl) [38]: > 50 µg/mL
IC50 (neutralization, TZM-bl) [39]: 0.036 µg/mL
IC50 (neutralization, TZM-bl) [40]: > 50 µg/mL
IC50 (neutralization, TZM-bl) [41]: > 50 µg/mL
IC50 (neutralization, TZM-bl) [42]: > 50 µg/mL
IC50 (neutralization, TZM-bl) [43]: > 50 µg/mL
IC50 (neutralization, TZM-bl) [44]: > 50 µg/mL
IC50 (neutralization, TZM-bl) [45]: 0.004 µg/mL
IC50 (neutralization, TZM-bl) [46]: > 50 µg/mL
IC50 (neutralization, TZM-bl) [47]: 0.622 µg/mL
IC50 (neutralization, TZM-bl) [48]: 0.017 µg/mL
